Measured values as given in paper PMC9507130.

The substances below were run against Vin1^1-116-mScI (UniProt P36158) (assay: subcellular recruitment assay (fluorescence microscopy, puncta quantification)). Conditions: vrl1 vin1Δ cells; over-expressed Vrl1(1-703)YPE chimera; pVIN1(1-116)-mScI; n=3, cells/strain/replicate ≥863; parent: est. 0.82; read off a plot.
Sequence of UniProt P36158 (P36158 1-116): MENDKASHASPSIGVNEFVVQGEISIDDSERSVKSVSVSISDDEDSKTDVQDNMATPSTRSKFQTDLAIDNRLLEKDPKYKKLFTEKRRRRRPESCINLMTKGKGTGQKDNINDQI
“Vrl1(1-703)^YPE (from UniProt P38815) D511K” gave an other: Average Bright Vin1(1-116)-mScI Puncta Per Cell (puncta per cell) of 0.14.
In the case of “Vrl1(1-703)^YPE (from UniProt P38815) E504A; E510A; D511A; N546A; E551A”, the other: Average Bright Vin1(1-116)-mScI Puncta Per Cell (puncta per cell) is reported as 0.075.
For “Vrl1(1-703)^YPE (from UniProt P38815) E510R”, the other: Average Bright Vin1(1-116)-mScI Puncta Per Cell (puncta per cell) was 0.04.
